Laboratory results reported in the DeepSol protein solubility set.

Experiment: soluble on expression in E. coli; label from the status in PepcDB or PDB records

Sequence	soluble on expression in E. coli
MKKVEILKTSRPSSAGGAARPSTASPTHGAPKIAIKTRPVADDVAPTAATVIEPSQKAMKESVRFLTDFGEISDAISDLLTSSPNFNVISAIGPQGAGKSTLLSMLAGNNSRQMYREYVFRPVSREANEQSRHQTIQIDIYIVNHQIFLDCQPMYSFSIMEGLPKVRGGRFDDSTAMSDTLRLTAFLLYVSHTVLVVSETHYDKVIIDTLRVAEQIRPYLAIFRPKLAIDRKTNLVFIKTKASSIDLAPTVIREREELLRLSFQDSRWLKVSQEPFKTLIVLEEIRVRREHLFEEGDEPDEAASLNEFDEQIAELREELQKNREDFTVETAAMDEKKWLDMCREVIRDKTLHKTLKEYQRAMTDGVRTHFDNGFHAERDANKFFS	not soluble
MKKVLLFAVVFSCSMWANAQRVTWATEAGLSAIQRTGYGECWRPSTRLGISADYNVNNMFSMKSGLYYTFRGYSVNNGGTYSNGDATWIENVSQTRHFLQVPILAKFSIHSNNSTKFFFEIGSYIGYCIKNHIDSNPYYLTMPSSGWVEGYPGVGESAEGGSNQFLYQHARNFDWGMTSAVGIENRRWTVKLQYEMSLGKESKNDNIGVNYNSLTLSVGYKLNVKQ	not soluble
MKKVQTPLFQGITENEWNEMQNCSCMRQQSFEKNELIFRMGESVREIGIVLTGSVNIENVDLWGNKSLLSNISAGQVFAETYAFCQEPLMVNAVAAEYTNLLFLNLETLMQPRYKDTLWTDKIMQNLLRISIYKNLILSNRIFCTTPKTIRGRLLIYLSSQASKAESTVFQISFNRQELADYLNLDRSALSKELGKMRDEGILEFRKNQFVLHQLPE	not soluble
MKLAVIAANGQAGKAIVEEAVKRGHEVTAIVRSENKSQAESIIKKDLFELTKDDLTGFDAVISAFGAYTPDTLPLHSKSIELFNQLLAGTQTRFLVVGGAGSLYIDETKTTRLLDTPDFPEEFKPLAKAQADELDLLRTKNNLNWTFVSPAVDFIPDGEKTGNYILAGEIFTTNEKGISQISYADYAIGLVDELEKGHHIKERISLLEKLEHHHHHH	soluble
MKLGFVGAGRVGSTSAFTCLLNLDVDEIALVDIAEDLAVGEAMDLAHAAAGIDKYPKIVGGADYSLLKGSEIIVVTAGLARKPGMTRLDLAHKNAGIIKDIAKKIVENAPESKILVVTNPMDVMTYIMWKESGKPRNEVFGMGNQLDSQRLKERLYNAGARNIRRAWIIGEHGDSMFVAKSLADFDGEVDWEAVENDVRFVAAEVIKRKGATIFGPAVAIYRMVKAVVEDTGEIIPTSMILQGEYGIENVAVGVPAKLGKNGAEVADIKLSDEEIEKLRNSAKILRERLEELGY	soluble
MKLIVSGKNLEVTEGLREAVEKQISKLEKYFKPEVEAHVTLSVEKNRQIVEVTIPFNGVILRGEETNNDMYASIDIVGDKLERQVRKQKTKLERRKYSDSLKFQNIPDYHKEEQEPEIVKTKRFAIKPMSEEEAVLEMELLGHNFFVFQNGDSNEVNVVYKRKDGNYGLIEPEFLEHHHHHH	soluble
MKLKGKGIGKVVVEGEVIVSRKPLSFLGGVDPETGTITDPESDIKGESITGKILVFPKGKGSTVGSYILYALSKNGKGPKAIIVEEAEPIVTAGAIISGIPLITNVDISKLKTGMRVRINPQEGEVEILAEGNLLEHHHHHH	not soluble
MKLKSNNIYEKMNQYSVVGLSLAVIRDGKLDETAAFGTLESGTNRTVTIDSIFNSCSISKFITTILILTLSDLKIVHLDEDVNDRLTSWNIPTNLFTSQKKVTLRNLLSHQSGIIDPPNSFEHYLLAQGQPNMSELLAGKTLYCSVPIEVTYKPESEFHYSDANFCIIEILLEDITGKPFNLLLEESIFQPLQMKNSTIFSPEDIDKTDAFACGHNKDGTVTNEKYPFYPFAAASGIWTTPTDLSALVIEIIHSLQGKGKLKLSQKTVQDMISPQGCSKWTGLGVFLDDLNEDLQIYSLGWGVGFQCMMICYPYRGNGAIIMTNADLGVHQMEGIIGDVLKTLSL	not soluble
MKLLILFSLFAIFFGVIALDSPIPEFYSTGRSTRVPSHRHRIPRLGKREVPNFQADNVPEAGGRVRRYVGPPLKLVILI	not soluble
MKLLLHICCGPCAVYPVNVLREEGIYFEGLFYNPNIHPYDEFIRRKENVKKLSEIKNVPVKYMDDFSQEIWEKLGEDNEKRCNMCYALRIDKVAGYAKENGFDAFTTTLLVSPYQKHELIVELSKRAGEKYGIEFFYKDFRPGFRQGQQEAKELGLYRQKYCGCIISYREAEKLKSERKSK	soluble
MKLNRAIGVIDSGVGGLTVAKELIRQLPKERIIYLGDTARCPYGPRSREEVRQFTWEMTEHLLDLNIKMLVIACNTATAVVLEEMQKQLPIPVVGVIHPGSRTALKVTNTYHVGIIGTIGTVKSGAYEEALKSINNRVMVESLACPPFVELVESGNFESEMAYEVVRETLQPLKNTDIDTLILGCTHYPILGPVIKQVMGDKVQLISSGDETAREVSTILYHSKMLNEGEEQSDHLFLTTGKIGLFKEIASKWFGQPIENVKHIHLEKE	not soluble
MKLSESRGETEKHRRQQHFEHELKNMISSLTHMGGDKAGPSQYDEEEDGIRVITLSGSNLGATMKTELDNNHGDRDQNGDHELDFLSTYVNSNFQAVNNSIMIGAKYETHDPGVHLDISGDVEKPSVKIPARSSRGKKGKTPARSDRRESEHTN	soluble
MKLSLVLTARDDGARRLLADTQRQLDRTAKSRAQLERQSHTYALTGIRSEKQIQREIMLTQAAFNRLARSGKASQNDLARAAVATRNRIRELNAELKQGTGFADKMGKIGRFGAAAVAGGAAAYTVLKPAMDNRKQLDENINRVSRQAFIEDNSKSAAWIATEGAQQIKDLALELVEKNGGTHDKALDLISGMMTTGLNFAQTKNEAQAAYAFALASEGSGEDTAKLIKTLKDGGMSGKDLQLGLEHVLQSGLDGTFEVRDMVRELPSLLSAAQQAGMNGVGGLDYLLSLLQSAANKSGSPAEAATNVQNLLSKTLSPDTIGRLKKMANPNDPKKGVDWIGSVVQGKQNGENAVQVLSRLADAMLVKDKQYQDYKKRAAAGDKTAAEQANMLKGALLAQLLPDLQAKQGLLAATDMTQIREYMASLAGVTLDNGKIAKNNEARMLSAAAQQEQQESLAMLRESLTGTLVDMETSFKKLAAEYPNATLALQALTTAATAASAAMLLTAGGGKGAGFLKDVGSKALGWGKASAGGVAAGATAAGGKLLSWGKSAGSGLMNNPALVKRAGLLGMLLYSESLGDGTLPKGLRGTKTTPEMINRLKNNGIRFEPAPKREQARGGVPQYLAAPSAQPTDKMLSPLFSTQTAAYQAAIQQQTAAYQAALAQDTAAVTTGLAQVQSAMASASQTINTNVSLNIDGRVIANEVSRYQVAMFGRGAGQ	not soluble
MKLTLWTYEGPPHVGAMRVATAMKDLQLVLHGPQGATYADLLFTMIERRNARPPVSFSTFEASHMGTDTAILLKDALAAAHARYKPQAMAVALTCTAELLQDDPNGISRALNLPVPVVPLELPSYSRKENYGADETFRALVRALAVPMERTPEVTCNLLGATALGFRHRDDVAEVTKLLATMGIKVNVCAPLGASPDDLRKLGQAHFNVLMYPETGESAARHLERACKQPFTKIVPIGVGATRDFLAEVSKITGLPVVTDESTLRQPWWSASVDSTYLTGKRVFIFGDGTHVIAAARIAAKEVGFEVVGMGCYNREMARPLRTAAAEYGLEALITDDYLEVEKAIEAAAPELILGTQMERNIAKKLGLPCAVISAPVHVQDFPARYAPQMGFEGANVLFDTWVHPLVMGLEEHLLTMFREDFEFHDAAGASHHGGKAVAREESPVAPADLAPAATSDTPAAPSPVVVTQASGEIRWMPEAERELRKIPFFVRGKAKRNTELYAAHKGVCDITVETLYEAKAHYAR	soluble
MKLTVKRSVFLQELQTVQRAISSKTTIPILTGVKIVLSEDGLSLTGSNADISIESFLSKDDEKAQMTIERTGSIVLQSRFFGEIIRKLPEDMFTMEVLDNNQVAITSGKADFTVNGLDADNYPHLPVIDTQNQMKLPVHLLTKIISETGFAVSMHESRPILTGVHFILENQKLLAVATDSHRLSQRVIPTEQAVEDFNIVIPGKSLTELSRSLTNEEEMVEISIMENQVLFKTETMYFYSRLLEGNYPDTNRLIPTSHNTQIEFYVPELLSAIERASLLSHEGRNNIVRLSISPDSVVLYGNSPEIGKVEEALNYENVSGEALDISFNPDYMKDALRAFGDMNITVKFLSPIRPFTLEPTETELDFIQLITPVRTN	not soluble
MKLVDALGKPCPIPVIETKKALAELGLAGGTIEVLVDNEVAIENLKKLATKKQATLTAKQIEATVFSVKITVPEEATQQTSQSATDLVITIGSDQLGTGDEQLGRLLMKSYLQSLSEAETVPTQLLFFNRGAFLTNQAANTLADLQQLAEKGTTIQTCGACLDFYHLTDTLAIGSITNMYEIVETMNQAAKVITLLEHHHHHH	soluble
MKLYSILVFHKNVDTSDVKLFKSECDLSSFSFFQRGSVQEFMTFTAKLLVERSGLGARSSVKENEYLVHCYVRNDGLSAVCVTDAEYQQRVAMSFLGRVLDDFTTRVPATQWPGIRSDKDCSYTGLKDLLEKWQNPREADPMTRVQEEVEETKMVMHNTIQSVLDRGEKLDDLVKKSENLSDQSKMFYTSARKMNKCCNYV	not soluble
MKMEVPQVDLPLEVLAWTKVTEDILNIYKQSCRLQACIFAICTEGTMKVSINLLEYEVHPNDLITLLPGTIIQFREKAEKVSLCFAGFSAKCIGHINLLTTIGNAYPKLIEQPIIPLSENIADYLKEYFALLSHASCDESFKMDSKLADLSLQTILTSIQLMYRNYSGNNHSNRKKEICRKLIQLITEHYKDQRCAQFYADQLGISLQHLSTTVKQVTGKSVLDTIAYIVIIDAKAQLKGTDMTIQEIAYSLNFPNPSFFCKFFRRHVGMSPLEFRNS	not soluble
MKMKILGISFGTKNGNNDTMCKVALKGAKEAGAEVEFIQMSSINIKHCTGCCACVKTLLSGKGSMCVLKDDFEWLLDKMKDADGIVVSDPIFEEGASGLFHTIMDRFGPRADRGNNIIGTKVAEAIGGKIPDSRMLNDKVISFMGIGGSDWGTRVQCEHAMLALIPMWKVIDNAWFPWAKELVMDDTRLVQVHQIGLNIVEAAKDFEKASYQGEEGVCPHCHNRLFYLEPGTKKAICALCGIVGELDTISGKTIFSFPEEQLGHAHDTLPGKFIHGDDIKKMEGHYAEVRKTQEFKERKTSYNFIETLTKEKQAGLEHHHHHH	not soluble
MKNEKIVVLYGGDSPEREVSLKSGKAVLDSLISQGYDAVGVDASGKELVAKLLELKPDKCFVALHGEDGENGRVSALLEMLEIKHTSSSMKSSVITMDKMISKEILMHHRMPTPMAKFLTDKLVAEDEISFPVAVKPSSGGSSIATFKVKSIQELKHAYEEASKYGEVMIEQWVTGKEITVAIVNDEVYSSVWIEPQNEFYDYESKYSGKSIYHSPSGLCEQKELEVRQLAKKAYDLLGCSGHARVDFIYDDRGNFYIMEINSSPGMTDNSLSPKSAAAEGVDFDSFVKRIIEQAQ	not soluble
MKNENENEICFIAGVGDSNGYGWGIAKELSKRNVKVIFGVWPPVYNIFIKNLESGKFDKDMIINNDNSKRMQILDVLPLDAGFDNYDDIDEDTKNNKRYNNLKNYSIEEVANLIYNKYGKISMLVHSLANGREVQKSLLDTSRDGYLDAISKSSYSLISLCKHFCKFMNSGGSVVSLTYQASQKVVPGYGGGMSSAKAALESDTRVLAYYLGRKYNIRINTISAGPLKSRAATAINKFNNNQKNNMNSSGETDKQNYSFIDYAIDYSEKYAPLKKKLLSTDVGSVASFLLSKESSAVTGQTIYVDNGLNIMFGPDDLFQSSDS	soluble
MKNFEWNTSFSFAYMNNEVKHLYGEYENVLDANGNIVGSKEKDEYGKWWIGRPISAIWDYRVTGIWQPDEIEEAKKVGQLPGDPKVANNYTEDDIISSDGSRIPVYNDKDKEFLGQTTSPYILSMRNNFTILKNIDFSFNLYSCIGSKMKDTSYLNQVNASEIDYGLNQSIKEYWTPEHQSNTYARLNSKGPTGVNSPARYIDRSFIRLENISIGYTFPKSIVSRWGLSNLKVYGTIRNAALWTMSHWKLNDIETGGLAPRTYSLGINVTL	not soluble
